Data taken from the supplement of paper PMC10126150.
± gives the standard deviation of the averaged measurements.

Test system: ATP
Assay: switch fluorescence ratio, 500 uM ATP over buffer (Cy3 cluster intensity, sum of 5 cycles each) (fold (ratio)); higher = stronger signal-on switching upon ATP binding; sequences stand for … in TCGTCGGCAGCGTCAGATGTGTATAAGAGACAGTTTTTTTTTTTTTTTTTTTTTTTTT…TC
Details: aptamer strand: ATP DNA aptamer (quencher-CACCTGGGGGAGTATTGCGGAGGAAGG + anchor), 100 nM annealed; ATP concentration: 500 uM
Outline: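 Switching-strand clusters labelled with Cy3 on a modified Illumina MiSeq flow-cell were annealed to 100 nM quencher-labelled ATP aptamer, imaged in selection buffer, and re-imaged after 15 min with 500 uM ATP at 22 °C. This was done over five cycles with NaOH stripping and re-annealing in between. The fluorescence ratio is summed target-cycle over summed buffer-cycle Cy3 intensity per cluster, averaged per switch-domain sequence, excluding clusters outside 100-1000 RFU.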
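Also: ATP exposure 15 min at 22 °C before imaging.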

AGCGGTCTGG showed a switch fluorescence ratio of 1 ± 0.013.

For AGTGCGTCTC, the switch fluorescence ratio was 0.975 ± 0.012.

With GAAAGGGAAA the switch fluorescence ratio was 1.03 ± 0.032.

Sequence ATTATTCGGT has a switch fluorescence ratio of 0.986 ± 0.013.

GATTTAAGAT gave a switch fluorescence ratio of 1.01 ± 0.029.

With GAAAAAGGCC the switch fluorescence ratio was 1.02 ± 0.011.

TGGGGACAAT gave a switch fluorescence ratio of 0.987 ± 0.018.

TGCCAGGAGT was tested, and the switch fluorescence ratio was 1.05 ± 0.014.

Work on CATTTCGGCG yielded a switch fluorescence ratio of 0.999 ± 0.044.

GTTACGGCAA gave a switch fluorescence ratio of 1.27 ± 0.064.

In the case of GAATTACGGC, the switch fluorescence ratio is reported as 1.04 ± 0.069.

CGCTTCTAGG showed a switch fluorescence ratio of 1.04 ± 0.024.

With GGCCGGCTAA the switch fluorescence ratio was 0.997 ± 0.011.

With ATGCGGTATG the switch fluorescence ratio was 1 ± 0.0024.

GGGGAGGGCC gave a switch fluorescence ratio of 1.01 ± 0.032.

For GGGGCAATTT, the switch fluorescence ratio was 1.04 ± 0.052.

Work on ATAGTAATCT yielded a switch fluorescence ratio of 0.993 ± 0.056.

With TGGTTGTCCC the switch fluorescence ratio was 1.01 ± 0.038.

With CTCTGGATTT the switch fluorescence ratio was 0.97272 ± 0.00011.

With TGGGGATATT the switch fluorescence ratio was 0.9965 ± 0.0016.

Sequence GTCGTTAGGG has a switch fluorescence ratio of 0.963 ± 0.051.

In the case of GCCAAGTTCG, the switch fluorescence ratio is reported as 0.9787 ± 0.0072.

GAAATTATTA gave a switch fluorescence ratio of 0.9919 ± 0.0075.

For TTTTGCTTCT, the switch fluorescence ratio was 1.03 ± 0.02.

For TATTTGTTGC, the switch fluorescence ratio was 1.03 ± 0.041.

Work on GAAGTAGTGG yielded a switch fluorescence ratio of 1.01 ± 0.014.

With GAATCGGCAT the switch fluorescence ratio was 1.02 ± 0.039.

Work on AAAATGTCGG yielded a switch fluorescence ratio of 0.998 ± 0.012.

TTGCATGAGG was tested, and the switch fluorescence ratio was 1.01 ± 0.078.

ACCTTTTTCG showed a switch fluorescence ratio of 1.07 ± 0.0096.

GGTGGGGGTG showed a switch fluorescence ratio of 0.998 ± 0.031.

AGGGTGTCCG showed a switch fluorescence ratio of 1.09 ± 0.054.

AGGCGGGGTG showed a switch fluorescence ratio of 1.04 ± 0.024.

AGTCCAATGT showed a switch fluorescence ratio of 0.993 ± 0.021.

GGCAGTTGTG showed a switch fluorescence ratio of 0.986 ± 0.024.

CGTTGTTAGT showed a switch fluorescence ratio of 1.037 ± 0.0083.

Sequence GATGAGAGGT has a switch fluorescence ratio of 0.999 ± 0.015.

Work on TGCGGGTTTC yielded a switch fluorescence ratio of 1.04 ± 0.017.

TGGGGGAAGC showed a switch fluorescence ratio of 0.984 ± 0.026.

For TTGGCTTGTC, the switch fluorescence ratio was 0.954 ± 0.019.

In the case of CTGTGGGAAG, the switch fluorescence ratio is reported as 0.995 ± 0.056.

With GCGTCACGTC the switch fluorescence ratio was 1.05 ± 0.054.

With AACCATGGGT the switch fluorescence ratio was 1.01 ± 0.03.

ACAGTATCGG gave a switch fluorescence ratio of 1.06 ± 0.013.

For TTTGAGTTTT, the switch fluorescence ratio was 0.989 ± 0.034.

CAGCTTGGAT showed a switch fluorescence ratio of 0.977 ± 0.013.

GCGTTTCGGG showed a switch fluorescence ratio of 0.968 ± 0.018.

Sequence GGTTGCACAG has a switch fluorescence ratio of 1.005 ± 0.0043.

Sequence ACTATTTTTC has a switch fluorescence ratio of 1.016 ± 0.0035.

In the case of TCGGAGGAAG, the switch fluorescence ratio is reported as 1.02 ± 0.012.

With TAATGATTGC the switch fluorescence ratio was 1.056 ± 0.0026.

Sequence ACTTCTAAAC has a switch fluorescence ratio of 1.07 ± 0.044.

In the case of AGGAGGGGGC, the switch fluorescence ratio is reported as 1 ± 0.048.

For GGTTAGGGGT, the switch fluorescence ratio was 1.08 ± 0.24.

For TTTATTCAGG, the switch fluorescence ratio was 1.02 ± 0.032.

Sequence CCTAGGGGGA has a switch fluorescence ratio of 1.05 ± 0.021.

For AGCGGTCAGT, the switch fluorescence ratio was 0.9776 ± 0.0075.

Sequence AGTGTGCATG has a switch fluorescence ratio of 1.03 ± 0.013.

In the case of AGGAGTTATT, the switch fluorescence ratio is reported as 1 ± 0.024.

In the case of TTAGGTAGTT, the switch fluorescence ratio is reported as 0.971 ± 0.051.

For ATCTGGGGTT, the switch fluorescence ratio was 1.04 ± 0.015.

For GTGTAAGGTT, the switch fluorescence ratio was 0.9935 ± 0.0066.

TAGATGCATG gave a switch fluorescence ratio of 1 ± 0.031.

Work on GCAATCGAGT yielded a switch fluorescence ratio of 1.6 ± 0.04.

In the case of TAAAAAAATA, the switch fluorescence ratio is reported as 0.971 ± 0.0079.

TTCAGTTTGG showed a switch fluorescence ratio of 1.01 ± 0.038.

TAGCCTGTTG showed a switch fluorescence ratio of 0.9667 ± 0.002.

With AAACAGGGGG the switch fluorescence ratio was 0.982 ± 0.028.

ACGCGGTCCA was tested, and the switch fluorescence ratio was 0.988 ± 0.019.

CTCTTTAGCG showed a switch fluorescence ratio of 1.01 ± 0.025.

Sequence GTGGCCCTAT has a switch fluorescence ratio of 0.998 ± 0.027.

In the case of GAGCCACCAC, the switch fluorescence ratio is reported as 1.051 ± 0.002.

ATTAATCTGA was tested, and the switch fluorescence ratio was 0.96 ± 0.029.

With ATGGTGTCAG the switch fluorescence ratio was 0.994 ± 0.046.

In the case of TGTAAGCCTT, the switch fluorescence ratio is reported as 1.03 ± 0.079.

For AAGAAAAGGA, the switch fluorescence ratio was 1.02 ± 0.017.

Sequence GCAGGTATTG has a switch fluorescence ratio of 1.02 ± 0.012.

TTAGATGTCC gave a switch fluorescence ratio of 0.9822 ± 0.0075.

GGTATCTCGA gave a switch fluorescence ratio of 1.03 ± 0.044.

With CGGTGGAGCT the switch fluorescence ratio was 1.01 ± 0.052.

With GGTCCTCTTT the switch fluorescence ratio was 0.98275 ± 0.00076.

GATGTAGCTT showed a switch fluorescence ratio of 1.029 ± 0.0033.

Sequence GGGTAGGAGG has a switch fluorescence ratio of 0.982 ± 0.013.

With CGTGGTGCGA the switch fluorescence ratio was 1.02 ± 0.015.

With ACTTATCTAC the switch fluorescence ratio was 1.05 ± 0.069.

With GGGGGGCGCT the switch fluorescence ratio was 0.992 ± 0.018.

With TAAGGAGTAA the switch fluorescence ratio was 1.034 ± 0.01.

In the case of GGGAACTTGG, the switch fluorescence ratio is reported as 0.986 ± 0.0099.

GAATCTTGGA gave a switch fluorescence ratio of 0.99 ± 0.015.

TATATTGTA showed a switch fluorescence ratio of 0.986 ± 0.03.

Work on TTTGCATTTG yielded a switch fluorescence ratio of 1.03 ± 0.013.

TAGTTTCGGC gave a switch fluorescence ratio of 0.958 ± 0.011.

AAAATGCGGT showed a switch fluorescence ratio of 0.996 ± 0.015.

In the case of GAGTAAGAGG, the switch fluorescence ratio is reported as 0.989 ± 0.059.

GGACGTAAGG showed a switch fluorescence ratio of 0.977 ± 0.016.

AAGGACCTCC was tested, and the switch fluorescence ratio was 1.232 ± 0.0034.

Work on ATGGCGTGGC yielded a switch fluorescence ratio of 0.986 ± 0.018.

Work on CCAGCCTAGT yielded a switch fluorescence ratio of 0.98408 ± 0.0008.

Work on TGGAAAAGGA yielded a switch fluorescence ratio of 0.9626 ± 0.0095.

For TGTTAGGTAG, the switch fluorescence ratio was 1.01 ± 0.011.

CGAGTTTG gave a switch fluorescence ratio of 0.98 ± 0.056.

In the case of TGCTAGGCG, the switch fluorescence ratio is reported as 1.02 ± 0.032.

TTTGTCTGGT gave a switch fluorescence ratio of 0.992 ± 0.017.

AGGGTTATGC showed a switch fluorescence ratio of 0.984 ± 0.031.

GACGGTGTGC was tested, and the switch fluorescence ratio was 1.077 ± 0.0059.

In the case of CTATGGGGTT, the switch fluorescence ratio is reported as 0.977 ± 0.011.

GGGGGCCGGT was tested, and the switch fluorescence ratio was 1.01 ± 0.058.

In the case of ACATATCCGT, the switch fluorescence ratio is reported as 1.01 ± 0.021.

In the case of CCTTGAATCG, the switch fluorescence ratio is reported as 0.978 ± 0.023.

TGGCGATTTT gave a switch fluorescence ratio of 0.978 ± 0.048.

In the case of AAAATCAGGC, the switch fluorescence ratio is reported as 0.944 ± 0.085.

Sequence CGTATTGCCA has a switch fluorescence ratio of 1 ± 0.025.

GGTACTCGTA was tested, and the switch fluorescence ratio was 1.01 ± 0.039.

TATAAGTGGT showed a switch fluorescence ratio of 0.992 ± 0.023.

TTGGCCCCCA showed a switch fluorescence ratio of 1.01 ± 0.017.

With CAATAGAGAG the switch fluorescence ratio was 0.997 ± 0.024.

Work on TCGAAGGAAT yielded a switch fluorescence ratio of 1.24 ± 0.037.

GTTGGGACGA was tested, and the switch fluorescence ratio was 1 ± 0.015.

In the case of GGGGCGTAGG, the switch fluorescence ratio is reported as 1 ± 0.033.

Work on ATTAGCGTTT yielded a switch fluorescence ratio of 0.977 ± 0.066.

TTCGATGGTG gave a switch fluorescence ratio of 0.987 ± 0.0044.

For ATTGGGTTAG, the switch fluorescence ratio was 0.975 ± 0.032.

For ATCATGTGGG, the switch fluorescence ratio was 0.999 ± 0.018.

TCGGGTACTG gave a switch fluorescence ratio of 0.979 ± 0.093.

AGGGGGTGGC gave a switch fluorescence ratio of 0.986 ± 0.048.

In the case of TTTACTGGTG, the switch fluorescence ratio is reported as 1.13 ± 0.012.

Work on GCGCTTTTGC yielded a switch fluorescence ratio of 1.04 ± 0.061.

With TTTAAATTGA the switch fluorescence ratio was 0.986 ± 0.02.

TGTGGGGAAG was tested, and the switch fluorescence ratio was 0.989 ± 0.016.

In the case of TGTGTCACCT, the switch fluorescence ratio is reported as 1.09 ± 0.025.

AGTTGCGTCC showed a switch fluorescence ratio of 1.01 ± 0.026.

With ACCGGCGTAG the switch fluorescence ratio was 1 ± 0.016.

Sequence TTAAAACGAA has a switch fluorescence ratio of 1.01 ± 0.024.

With AGGATACGGT the switch fluorescence ratio was 1.0054 ± 0.00059.

GGGCATGGTG showed a switch fluorescence ratio of 1.05 ± 0.025.

Work on ACTCGCCCCA yielded a switch fluorescence ratio of 1.46 ± 0.084.

In the case of TCGCTGAAGC, the switch fluorescence ratio is reported as 1.02 ± 0.013.

TGTGGGTTTT was tested, and the switch fluorescence ratio was 1.02 ± 0.056.

TTGGGGGAAG gave a switch fluorescence ratio of 0.981 ± 0.026.

Sequence TAGGAATTTG has a switch fluorescence ratio of 0.998 ± 0.037.

With ATAAGGGCGA the switch fluorescence ratio was 0.985 ± 0.028.

In the case of TAAATTGGCG, the switch fluorescence ratio is reported as 0.987 ± 0.037.

In the case of AATGTTGCGT, the switch fluorescence ratio is reported as 0.99 ± 0.028.

TCGATCGCTA gave a switch fluorescence ratio of 1.43 ± 0.59.

AGATGGGCAG gave a switch fluorescence ratio of 0.996 ± 0.012.

GCATTGTGCC was tested, and the switch fluorescence ratio was 1.02 ± 0.022.

Work on CTCTGGGAGG yielded a switch fluorescence ratio of 0.995 ± 0.021.

TTTTCGAGAG was tested, and the switch fluorescence ratio was 1 ± 0.026.

TTGATTAGAT gave a switch fluorescence ratio of 1.014 ± 0.0016.

With CCAGGGGTGC the switch fluorescence ratio was 1.48 ± 0.05.

Sequence GATAGAAATT has a switch fluorescence ratio of 1.01 ± 0.031.

In the case of ACTTGGGGGA, the switch fluorescence ratio is reported as 0.9907 ± 0.0057.

Sequence AATCGGGGAT has a switch fluorescence ratio of 1 ± 0.012.

GAAGGATAGG was tested, and the switch fluorescence ratio was 0.975 ± 0.029.

For AAGATGGGTG, the switch fluorescence ratio was 0.9968 ± 0.005.

TCTTTAAAGT gave a switch fluorescence ratio of 1.04 ± 0.083.

In the case of TAGTTCTGTT, the switch fluorescence ratio is reported as 0.983 ± 0.0077.
